Where a chain is given by its changes, count along the chain named. Where “and” joins values, the source holds several entries; their conditions need not be identical. Equal entries are not always repeated.
B1: c-Met IgG antibody 12119 (antibody, V domains shown)
VH: QLQLQESGPGLVKPSGTLSLTCAVSGGSISTSDWWSWVRRPPGKGLEWIGEIYHSGSTNYHPSLKSRVTISLDKSKNQFSLKLSSVTAADTAVYYCAREGGHSGSYPLDYWGRGTLVTVSS
VL: NFMLTQPHSVSESPGKTVTISCARSSGSIASNYVQWYQQRPGSSPTTLIYEDRQRPSGVPDRFSGSIDSSSNSASLTISGLKTEDEADYYCQSYDSSDHVVFGGGTKLTVLG
notes: IgG of scFv PGIA-5-A1; also called 12119 IgG; IgG of scFv PGIA-05-A1 (PGIA-5-A1)
B2: c-Met 11994 Fab (Fab, V domains shown)
VH: B1 VH with L2V, R113K
VL: NFMLTQPHSVSESPGKTVTISCTRSSGSIASNYVQWYQQRPGSSPTTVIYEDNQRPSGVPDRFSGSIDSSSNSASLTISGLKTEDEADYYCQSYDSSNQGVVFGGGTKLTVLG
notes: VH and VL limits counted as for the IgG; also called 11994-50; Fab fragment derived from c-Met antibody 11994
B3: c-Met IgG antibody 11994 (antibody, V domains shown)
VH: B1 VH with L2V, R113K
VL: B2 VL
notes: IgG of scFv PGIA-3-A9; also called 11994 IgG; 11994-50
B4: c-Met IgG antibody 12075 (antibody, V domains shown)
VH: QVQLVQSGPEVKKPGASVEVSCKASGYTFTGDYMHWVRQAPGQGPEWMGWINPQTGVTKYAQKFQGRVTMARDTSINTAYMELRGLRSDDTAVYYCVREDHNYDLWSAYNGLDVWGQGTLVTVSS
VL: QSVLTQPPSVSAAPGQKVTISCSGSSSNIGNNHVSWYQQLAGTAPKLLIFDNDKRPSGIPDRFSGSKSGTSATLGITGLQTGDEADYYCGTWDKSPTDIYVFGSGTKLTVLG
notes: IgG of scFv PGIA-3-A11; also called 12075 IgG; IgG of scFv PGIA-03-A11 (PGIA-3-A11)
B5: NK4-6His (recombinant NK4, CHO DG44/pPHA27965) (ligand)
chain: QRKRRNTIHEFKKSAKTTLIKIDPALKIKTKKVNTADQCANRCTRNKGLPFTCKAFVFDKARKQCLWFPFNSMSSGVKKEFGHEFDLYENKDYIRNCIIGKGRSYKGTVSITKSGIKCQPWSSMIPHEHSFLPSSYRGKDLQENYCRNPRGEEGGPWCFTSNPEVRYEVCDIPQCSEVECMTCNGESYRGLMDHTESGKICQRWDHQTPHRHKFLPERYPDKGFDDNYCRNPDGQPRPWCYTLDPHTRWEYCAIKTCADNTMNDTDVPLETTECIQGQGEGYRGTVNTIWNGIPCQRWDSQYPHEHDMTPENFKCKDLRENYCRNPDGSESPWCFTTDPNIRVGYCSQIPNCDMSHGQDCYRGNGKNYMGNLSQTRSGLTCSMWDKNMEDLHRHIFWEPDASKLNENYCRNPDDDAHGPWCYTGNPLIPWDYCPISRCEGDTTPTIVHHHHHH
notes: domain: NK4; also called NK4-His
B6: NK4-Elastase (ligand, UniProt P14210 32-478, looked up)
chain: QRKRRNTIHEFKKSAKTTLIKIDPALKIKTKKVNTADQCANRCTRNKGLPFTCKAFVFDKARKQCLWFPFNSMSSGVKKEFGHEFDLYENKDYIRNCIIGKGRSYKGTVSITKSGIKCQPWSSMIPHEHSFLPSSYRGKDLQENYCRNPRGEEGGPWCFTSNPEVRYEVCDIPQCSEVECMTCNGESYRGLMDHTESGKICQRWDHQTPHRHKFLPERYPDKGFDDNYCRNPDGQPRPWCYTLDPHTRWEYCAIKTCADNTMNDTDVPLETTECIQGQGEGYRGTVNTIWNGIPCQRWDSQYPHEHDMTPENFKCKDLRENYCRNPDGSESPWCFTTDPNIRVGYCSQIPNCDMSHGQDCYRGNGKNYMGNLSQTRSGLTCSMWDKNMEDLHRHIFWEPDASKLNENYCRNPDDDAHGPWCYTGNPLIPWDYCPISRCEGDTTPTIV
notes: domain: kringle to kringle 4 fragment
B7: c-Met IgG antibody 11978 (antibody, V domains shown)
VH: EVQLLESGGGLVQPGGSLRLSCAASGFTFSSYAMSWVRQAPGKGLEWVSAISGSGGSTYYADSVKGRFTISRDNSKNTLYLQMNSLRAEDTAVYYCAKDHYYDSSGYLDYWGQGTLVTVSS
VL: NFMLTQPHSVSESPGKTVTISCTRSSGSIAFDYVQWYQQRPGSAPTTVIYEDNQRPSGVPDRFSASIDSSSNSASLTISALKTEDEADYYCQSYDNSNSWVFGGGTKLTVLG
notes: IgG of scFv PGIA-1-A8; also called IgG of scFv PGIA-01-A8 (PGIA-1-A8)

Key:
[1] = biological target: c-Met (endogenous, on human cell lines 184B5, HCT-116, DU-145 and NCI H441) (human, UniProt P08581 25-1390); assay: cell-based or functional assay
Chain of c-Met (endogenous, on human cell lines 184B5, HCT-116, DU-145 and NCI H441) (P08581 25-1390): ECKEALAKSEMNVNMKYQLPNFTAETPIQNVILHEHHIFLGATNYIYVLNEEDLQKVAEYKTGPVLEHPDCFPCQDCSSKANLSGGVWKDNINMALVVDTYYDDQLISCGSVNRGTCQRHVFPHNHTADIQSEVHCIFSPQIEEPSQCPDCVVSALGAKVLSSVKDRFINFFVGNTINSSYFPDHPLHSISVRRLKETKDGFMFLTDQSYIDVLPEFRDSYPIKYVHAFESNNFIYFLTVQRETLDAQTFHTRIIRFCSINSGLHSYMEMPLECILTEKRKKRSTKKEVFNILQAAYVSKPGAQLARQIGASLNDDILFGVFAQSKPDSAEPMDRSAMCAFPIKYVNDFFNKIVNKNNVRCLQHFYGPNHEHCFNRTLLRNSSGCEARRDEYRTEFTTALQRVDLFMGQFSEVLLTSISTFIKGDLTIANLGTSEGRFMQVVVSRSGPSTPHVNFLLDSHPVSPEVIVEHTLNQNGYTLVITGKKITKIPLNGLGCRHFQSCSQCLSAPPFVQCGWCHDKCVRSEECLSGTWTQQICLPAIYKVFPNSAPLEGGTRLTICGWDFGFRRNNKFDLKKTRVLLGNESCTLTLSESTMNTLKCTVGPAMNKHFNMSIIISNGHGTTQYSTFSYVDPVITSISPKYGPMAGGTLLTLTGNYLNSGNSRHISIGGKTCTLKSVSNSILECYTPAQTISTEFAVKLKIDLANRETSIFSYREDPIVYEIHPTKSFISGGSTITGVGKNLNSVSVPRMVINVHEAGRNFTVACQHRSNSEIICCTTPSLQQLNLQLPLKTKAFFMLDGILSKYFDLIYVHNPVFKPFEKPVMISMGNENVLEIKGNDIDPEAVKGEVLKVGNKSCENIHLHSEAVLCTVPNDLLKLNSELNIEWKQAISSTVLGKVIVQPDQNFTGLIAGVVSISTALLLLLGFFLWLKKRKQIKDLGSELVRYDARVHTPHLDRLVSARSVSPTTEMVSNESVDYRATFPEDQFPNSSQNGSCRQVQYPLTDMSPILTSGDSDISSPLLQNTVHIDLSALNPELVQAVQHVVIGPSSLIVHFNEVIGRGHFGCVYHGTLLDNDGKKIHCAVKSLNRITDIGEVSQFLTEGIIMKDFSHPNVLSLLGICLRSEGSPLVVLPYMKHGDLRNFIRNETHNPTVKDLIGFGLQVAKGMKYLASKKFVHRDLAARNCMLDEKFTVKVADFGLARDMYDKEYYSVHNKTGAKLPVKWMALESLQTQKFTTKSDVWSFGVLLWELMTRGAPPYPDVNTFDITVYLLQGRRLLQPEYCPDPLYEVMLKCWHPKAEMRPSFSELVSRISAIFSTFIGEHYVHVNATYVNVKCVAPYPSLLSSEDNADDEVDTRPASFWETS

[2] = biological target: T1, c-Met/Fc Chimera (R&D Systems, catalog # 358-MT-100) (human, UniProt P08581 25-932); assay: competition ELISA: displacement of biotinylated HGF from plate-coated c-Met/Fc chimera, IgG, n = 2
T1 construct: extracellular domain; Bought reagent; also called human c-Met-Fc fusion protein; recombinant c-Met protein; Fc part of the bought chimera not given
T1 sequence (P08581 25-932, change not shown): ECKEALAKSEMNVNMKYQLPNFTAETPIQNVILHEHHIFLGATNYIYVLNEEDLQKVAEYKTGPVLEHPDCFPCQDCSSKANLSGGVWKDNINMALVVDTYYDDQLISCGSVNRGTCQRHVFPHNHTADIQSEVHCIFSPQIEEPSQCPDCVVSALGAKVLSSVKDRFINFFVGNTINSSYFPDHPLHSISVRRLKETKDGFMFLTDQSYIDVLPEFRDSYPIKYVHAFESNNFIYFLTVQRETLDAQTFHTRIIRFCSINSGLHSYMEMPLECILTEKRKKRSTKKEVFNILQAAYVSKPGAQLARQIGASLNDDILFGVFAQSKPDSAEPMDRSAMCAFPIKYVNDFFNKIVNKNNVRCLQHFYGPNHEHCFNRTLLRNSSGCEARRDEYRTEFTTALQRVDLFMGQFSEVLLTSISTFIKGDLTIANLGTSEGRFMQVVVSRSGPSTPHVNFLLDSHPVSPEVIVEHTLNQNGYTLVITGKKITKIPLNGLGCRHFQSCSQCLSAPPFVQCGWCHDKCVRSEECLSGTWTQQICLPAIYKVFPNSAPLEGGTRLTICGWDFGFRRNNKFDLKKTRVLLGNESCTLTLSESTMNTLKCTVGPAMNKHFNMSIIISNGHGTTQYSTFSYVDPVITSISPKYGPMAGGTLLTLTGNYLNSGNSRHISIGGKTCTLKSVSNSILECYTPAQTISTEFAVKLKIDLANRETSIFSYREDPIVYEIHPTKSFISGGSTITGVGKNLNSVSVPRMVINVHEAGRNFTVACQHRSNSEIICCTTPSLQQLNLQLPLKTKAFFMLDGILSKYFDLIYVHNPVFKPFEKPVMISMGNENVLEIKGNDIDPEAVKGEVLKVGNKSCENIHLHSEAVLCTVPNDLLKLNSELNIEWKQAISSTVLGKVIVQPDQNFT
Method: (§1) 96-well Fluoronunc plates were coated with 50 ul of 0.5 ug/ml c-Met/Fc Chimera (R&D Systems, Minneapolis Minn., catalog # 358-MT-100) in phosphate buffered saline (PBS) and the plates were incubated overnight at room temperature. Wells were washed three times with washing buffer (PBS+0.1% Tween 20), blotting the plates on paper towels between each wash. Nonspecific binding in the wells was blocked by the addition of 250 ul of blocking buffer (3.0% milk (Carnation) in PBS) to each well and incubated at room temperature for two hours.
(§2) The c-Met antibodies were diluted in reagent buffer (PBS, 0.5% BSA, 0.05% Tween-20) and titrations were performed in 96 well polypropylene plates. Biotinylated HGF (0.4 ug/ml) (R&D Systems, biotinylated with Pierce #21335 as per manufacturer's instructions) was added to each well. 50 ul of the dilutions were transferred into the Fluoronunc plates containing human c-Met-Fc fusion protein (R&D Systems, #) and the plates were incubated for two hours at room temperature. The plates were washed three times with wash buffer and blotted onto paper towels. 50 ul of europium-labeled Streptavidin (Wallac Perkin Elmer) diluted 1:1000 in Delfia assay buffer (Wallac Perkin Elmer) was added per well and the plates were incubated for one hour at room temperature. The plates were washed seven times with Delfia wash buffer (Tris buffered saline (TBS) supplemented with 0.1% Tween-20) and blotted onto paper towels. 100 ul Delfia enhancer solution (Wallac Perkin Elmer) was added to each well and the plates incubated for 5 minutes on a plate shaker at room temperature. Plates were read on a fluorescence plate reader and analyzed using GraphPad Prism software (GraphPad Software, San Diego, Calif.).
(§3) C-Met antibodies 1A3.3.13 (#HB-11894, ATCC Hybridoma) and 5D5.11.6 (#HB-11895, ATCC Hybridoma) were used as positive controls. MOPC-21 (#M-7894, Sigma) was used as an IgG isotype control and HB-94 (#HB-94, ATCC Hybridoma) was converted into a Fab fragment and used as a Fab isotype control. NK4-Elastase is a kringle to kringle 4 fragment resulting from digesting intact HGF purified from S-114 cells with elastase (Date et al., FEBS Lett. 420:1-6 ([…]).

[3] = biological target: T2, biotinylated c-Met-Fc (R&D Systems, #358-MT-100/CF, 5.1 biotin per c-Met molecule) (human, UniProt P08581 25-932, biotinylated, 5.1 biotin per c-Met molecule (Pierce #21335)); assay: SPR (BIAcore), biotinylated c-Met-Fc captured on streptavidin chip, IgG as analyte, bivalent model
T2 construct: extracellular domain; Captured on a streptavidin (SA) chip for the BIAcore study of the IgGs; Fc part of the bought chimera not given
T2 sequence (P08581 25-932): as the sequence (P08581 25-932, change not shown) above
Method: The binding properties (on-rate, off-rate and affinity) of c-Met monoclonal antibodies (IgG or Fab versions) with human c-Met extracellular domain was determined using surface plasmon resonance, or BLAcore, technology. For the binding studies with IgG, a low density (<1 ng/mm2) of c-Met-Fc (R&D Systems, #358-MT-100/CF) containing 5.1 biotin per c-Met molecule (prepared with Pierce #21335 as per manufacturer's instructions) was captured onto a SA chip precoated with Streptavidin (BIAcore Inc.). A streptavidin flow cell without adsorbed c-Met-Fc was used as a control cell for non-specificbinding. The antibody sample to be analyzed was prepared in HEPES buffer (0.15M NaCl, 10 mM HEPES, 3.4 mM EDTA, 0.005% surfactant P-20, pH 7.4) to form a set of solutions varied in concentration from 0.78 nM to 100 nM. The HEPES buffer used as the running solution was set at a flow rate of 50 ul/min. Each sample solution was injected over the two flow cells for three minutes, followed by 5 minutes of dissociation. The flow cells were then regenerated with 4.5M MgCl₂ for one minute to remove the bound antibody for the next cycle of binding study. The net sensorgrams (subtraction of sensorgrams from the negative control flow cell as well as that from the buffer blank) obtained for each set of samples were processed simultaneously in a global fitting using a bivalent binding model of the BIAevaluation software program equipped with the system. The on-rate (Kₐ), off-rate (Kd) and binding affinity (KD) were determined from the fitting with KD equal to kd/kₐ.

[4] = biological target: T1, c-Met/Fc Chimera (R&D Systems, catalog …); assay: europium (DELFIA) ligand competition ELISA: biotinylated HGF binding to plate-coated c-Met/Fc Chimera, antibody titrated
Method: as §1, §2

[5] = biological target: T1, c-Met/Fc Chimera (R&D Systems, catalog …); assay: SPR (BIAcore), c-Met-Fc captured on protein A CM5 chip, Fab as analyte, 1:1 Langmuir model
Method: For the binding study of Fab fragments derived from antibodies of the invention, a high density (>2 ng/mm²) of protein A was first immobilized covalently onto a CM5 sensorchip using EDC/NHS amine coupling chemistry [. The flow cell containing c-Met-Fc captured by the protein A was used as the positive control while a flow cell containing only protein A was used as the negative control. The Fab sample to be analyzed was as above for antibodies to form a set of solutions with concentration ranged from 3.9 nM to 500 nM. The HEPES buffer used as the running solution was set at a flow rate of 50 ul/min. For each cycle of binding study, low density (<1 ng/mm²) of c-Met-Fc was captured first onto the positive flow cell. Each sample solution was then injected over the two flow cells (one negative and one positive in series) for three minutes followed by 5 minutes of dissociation. The flow cells were then regenerated with 4.5M MgCl₂ for one minute to remove the bound c-Met-Fc/Fab complexes for the next cycle of binding. The net sensorgrams (subtraction of sensorgrams from the negative control flow cell as well as that from the buffer blank) obtained from the set of samples were fitted simultaneously in a global fitting using a Langmuir 1:1 binding model of the BIAevaluation program equipped with the system. The on-rate (Kₐ), off-rate (Kd) and binding affinity (KD) were determined from the fitting with KD equal to kd/kₐ.

[6] = biological target: T1, c-Met/Fc Chimera (R&D Systems, catalog …); assay: competition ELISA: displacement of biotinylated HGF from plate-coated c-Met/Fc chimera, Fab, n = 2
Method: as §1, §2, §3

[7] = biological target: T1, c-Met/Fc Chimera (R&D Systems, catalog …); assay: europium (DELFIA) ligand competition ELISA: biotinylated HGF binding to plate-coated c-Met/Fc Chimera, Fab titrated
Method: as §1
(§4) The c-Met antibodies were diluted in reagent buffer (PBS, 0.5% BSA, 0.05% Tween-20) and titrations were performed in 96 well polypropylene plates. Biotinylated HGF (0.4 ug/ml) (R&D Systems, biotinylated with Pierce #21335 as per manufacturer's instructions) was added to each well. 50 ul of the dilutions were transferred into the Fluoronunc plates containing human c-Met-Fc fusion protein (R&D Systems, #) and the plates were incubated for two hours at room temperature. The plates were washed three times with wash buffer and blotted onto paper towels. […] Plates were read on a fluorescence plate reader and analyzed using GraphPad Prism software (GraphPad Software, San Diego, Calif.).

[8] = biological target: T1, c-Met/Fc Chimera (R&D Systems, catalog …); assay: competition ELISA: displacement of biotinylated HGF from plate-coated c-Met/Fc chimera; value stands in the Fab column, n = 2
Method: as §1
as §4, with “Calif.). […]” for “Calif.).”

Binder	scatter assay on DU-145 cells, mean object area, agonist (alone), 100 nM IgG; the smaller the number, the more scattering [1] [mean object area]	scatter assay on DU-145 cells, mean object area, antagonist (w/30 pM HGF), 100 nM IgG; the smaller the number, the more scattering [1] [mean object area]	IC50 [2] [nM]	Kd [3] [nM]	koff [3] [s⁻¹]	kon [3] [M⁻¹ s⁻¹]	IC50 (read off the curve) [4] [nM]	also measured
B1	285	293	0.64	13	0.00112	86000	~0.7	
B2								Kd [5]: 13.8 nM; koff [5]: 0.00528 s⁻¹; kon [5]: 383000 M⁻¹ s⁻¹; IC50 [6]: 24.6 nM; IC50 (read off the curve) [7]: ~3 nM
B3			0.58	8.4	0.000759	90600	~0.7	
B4	318	289	2.55	552	0.00845	15300	~3	
B5								IC50 [8]: > 125 nM
B6								IC50 [8]: 900 nM and 551 nM
B7	459	372	0.84				~0.8	

— patent US20040166544A1 (published 2004)
